Data set [1] has as its system T1, O=C(Cc1cccs1)N[C@@H]1C(=O)N2C(C(=O)O)=C(/C=C/c3ccc([N+](=O)[O-])cc3[N+](=O)[O-])CS[C@H]12.
T1 construct: mature OmpF; His-tag and thrombin site deleted; beta-barrel trimer
Description: purified protein. The class given is biochemical, Escherichia coli. Particulars: 50 mM Tris-HCl pH 8, room temperature.

Data set [2] deals with the molecule itself. Description: SDS-PAGE of the refolded protein; unfolded OmpF (20 mg/mL) refolded with 1% n-dodecyl-β-D-glucopyranoside and 1% n-dodecyl-β-D-maltopyranoside at 37 °C for 1-2 days; folding and oligomerization determined by 15% SDS-PAGE.
The mark [3] stands for this setting: OmpF2, 1.2 equiv. ZnCl2, 10 µM protein.
The mark [4] stands for this setting: OmpF1Y, 1.2 equiv. ZnCl2, 10 µM protein.
[5] abbreviates: OmpF1, 1.2 equiv. ZnCl2, 10 µM protein.

Changes are numbered by the printed parent chain. Names and notes keep the numbering of the source.

For “OmpF (outer membrane protein F; OmpF1, OmpF1Y, OmpF2 and evolved variants) (Escherichia coli K-12; L105H/R154H/Y124H)”, in data set [1] (setting [3]), the Km was 1700 ± 600 µM and the kcat stood at 0.025 ± 0.005 s⁻¹. Consider “OmpF (outer membrane protein F; OmpF1, OmpF1Y, OmpF2 and evolved variants) (Escherichia coli K-12; R104H/R154H)”, for which, in data set [1] (setting [4]), the Km is 2000 ± 1000 µM and the kcat came out at 0.02 ± 0.01 s⁻¹. On to “OmpF (outer membrane protein F; OmpF1, OmpF1Y, OmpF2 and evolved variants) (Escherichia coli K-12; R104H/R154H/Y124H)”, for which, in data set [1] (setting [5]), the Km worked out at 1400 ± 600 µM and the turnover number (kcat) is 0.017 ± 0.004 s⁻¹.

B1: OmpF1 (OmpF R82H/Y102H/R132H) (natural protein, UniProt P02931 23-362, looked up)
chain: AEIYNKDGNKVDLYGKAVGLHYFSKGNGENSYGGNGDMTYARLGFKGETQINSDLTGYGQWEYNFQGNNSEGADAQTGNKTHLAFAGLKYADVGSFDYGRNHGVVYDALGYTDMLPEFGGDTAYSDDFFVGHVGGVATYRNSNFFGLVDGLNFAVQYLGKNERDTARRSNGDGVGGSISYEYEGFGIVGAYGAADRTNLQEAQPLGNGKKAEQWATGLKYDANNIYLAANYGETRNATPITNKFTNTSGFANKTQDVLLVAQYQFDFGLRPSIAYTKSKAKDVEGIGDVDLVNYFEVGATYYFNKNMSTYVDYIINQIDSDNKLGVGSDDTVAVGIVYQF
notes: outer membrane protein F (OmpF), UniProt P02931, expressed without the native 22-residue signal peptide; His-tag and thrombin site were deleted from the plasmid; Crystallised with 1.2 equiv. of Zn ion per protomer; also called R132H/Y102H/R82H; source: E. coli BL21(DE3)
Turning to B1, in data set [2], the “stoichiometry N” value is 3.

B2: OmpF2 (OmpF L83H/Y102H/R132H) (natural protein, UniProt P02931 23-362, looked up)
chain: B1 chain with H82R, L83H
notes: outer membrane protein F (OmpF), UniProt P02931, expressed without the native 22-residue signal peptide; His-tag and thrombin site were deleted from the plasmid; Crystallised with 1.2 equiv. of Zn ion per protomer; also called R132H/Y102H/L83H; source: E. coli BL21(DE3)
For B2, the “stoichiometry N” value in data set [2] is 3.

One may read the Km as the concentration of substrate that gives half-maximal velocity. Usually kcat stands for the number of substrate molecules converted per active site and unit of time at saturation. A word on the stoichiometry N: it is the number of molecules, sites or subunits per partner or assembly.

The values above are taken from publication PMC9652281, “Design and directed evolution of noncanonical β-stereoselective metalloglycosidases” (Nature Communications, 2022).
